Source: patent US20230372399A1
Where two headings read alike, the source gives them in different places.

Assays:
Assay in all cases: cell-based or functional assay
TGFβ1 (R&D systems) [1] = target: TGFβ1 (R&D systems) (UniProt P01137)
TGFβ1 (R&D systems) [2] = target: TGFβ1 (R&D systems) (UniProt P01137); remark: listed apart in the source
[3] = target: IL-2Rαβγ (on CTLL-2 cells)
[4] = target: IL-2Rβ and common γ chain (on 32Dβ cells)
[5] = target: IL-2Rβ and common γ chain (on 32Dβ cells); remark: listed apart in the source
[6] = target: IL-2Rβ and common γ chain (on 32Dβ cells); remark: listed apart in the source
IL-21R (on B9 cells) = target: IL-21R (on B9 cells)

TGFR-Fc (R&D Systems), sequence (P37173 24-159): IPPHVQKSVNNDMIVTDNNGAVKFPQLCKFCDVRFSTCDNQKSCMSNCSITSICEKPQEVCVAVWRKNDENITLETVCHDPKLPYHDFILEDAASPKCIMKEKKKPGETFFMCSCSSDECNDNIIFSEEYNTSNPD
TGFβ1 (R&D systems), sequence (P01137 279-390 limits assumed): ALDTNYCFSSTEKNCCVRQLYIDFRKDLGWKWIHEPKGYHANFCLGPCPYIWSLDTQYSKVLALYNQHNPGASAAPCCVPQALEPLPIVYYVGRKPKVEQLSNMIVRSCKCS

Substance: TGFR-Fc (R&D Systems) (from UniProt P37173 24-159) (Fc fusion)
- IC50, inhibition of TGFβ1 activity, HEK-Blue TGFβ reporter cells (TGFβ1 (R&D systems) [1]): 0.461 nM
- IC50, inhibition of TGFβ1 activity, HEK-Blue TGFβ reporter cells (TGFβ1 (R&D systems) [2]): 0.559 nM

Substance: recombinant IL-2 (from UniProt P60568 21-153) (ligand)
- EC50, CTLL-2 cell proliferation (WST-1) [3]: 0.548 nM

Substance: recombinant IL-15 (from UniProt P40933 49-162) (ligand)
- EC50, 32Dβ cell proliferation (WST-1) [4]: 0.0016 nM
- EC50, 32Dβ cell proliferation (WST-1) [5]: 0.0166 nM
- EC50, 32Dβ cell proliferation (WST-1) [6]: 0.0106 nM
- EC50, CTLL2 cell proliferation (PrestoBlue) [3]: 0.00495 nM
- EC50, CTLL2 cell proliferation (WST-1) [3]: 0.00622 nM

Substance: recombinant IL-21 (from UniProt Q9HBE4 32-162) (ligand)
- EC50, B9 cell proliferation (WST-1) (IL-21R (on B9 cells)): 72.5 nM
